Source: PMC5587847, “IPA1 functions as a downstream transcription factor repressed by D53 in strigolactone signaling in rice” (Cell Research, 2017)

Target: T1, HisTrx-D53 (rice (Oryza sativa L.), UniProt Q2RBP2 1-1131)
T1 construct: DWARF 53 (D53), rice; full-length CDS in an E. coli expression vector (pDEST51); also called HisTrx-D53 fusion protein; source: E. coli, purified
T1 sequence (looked up): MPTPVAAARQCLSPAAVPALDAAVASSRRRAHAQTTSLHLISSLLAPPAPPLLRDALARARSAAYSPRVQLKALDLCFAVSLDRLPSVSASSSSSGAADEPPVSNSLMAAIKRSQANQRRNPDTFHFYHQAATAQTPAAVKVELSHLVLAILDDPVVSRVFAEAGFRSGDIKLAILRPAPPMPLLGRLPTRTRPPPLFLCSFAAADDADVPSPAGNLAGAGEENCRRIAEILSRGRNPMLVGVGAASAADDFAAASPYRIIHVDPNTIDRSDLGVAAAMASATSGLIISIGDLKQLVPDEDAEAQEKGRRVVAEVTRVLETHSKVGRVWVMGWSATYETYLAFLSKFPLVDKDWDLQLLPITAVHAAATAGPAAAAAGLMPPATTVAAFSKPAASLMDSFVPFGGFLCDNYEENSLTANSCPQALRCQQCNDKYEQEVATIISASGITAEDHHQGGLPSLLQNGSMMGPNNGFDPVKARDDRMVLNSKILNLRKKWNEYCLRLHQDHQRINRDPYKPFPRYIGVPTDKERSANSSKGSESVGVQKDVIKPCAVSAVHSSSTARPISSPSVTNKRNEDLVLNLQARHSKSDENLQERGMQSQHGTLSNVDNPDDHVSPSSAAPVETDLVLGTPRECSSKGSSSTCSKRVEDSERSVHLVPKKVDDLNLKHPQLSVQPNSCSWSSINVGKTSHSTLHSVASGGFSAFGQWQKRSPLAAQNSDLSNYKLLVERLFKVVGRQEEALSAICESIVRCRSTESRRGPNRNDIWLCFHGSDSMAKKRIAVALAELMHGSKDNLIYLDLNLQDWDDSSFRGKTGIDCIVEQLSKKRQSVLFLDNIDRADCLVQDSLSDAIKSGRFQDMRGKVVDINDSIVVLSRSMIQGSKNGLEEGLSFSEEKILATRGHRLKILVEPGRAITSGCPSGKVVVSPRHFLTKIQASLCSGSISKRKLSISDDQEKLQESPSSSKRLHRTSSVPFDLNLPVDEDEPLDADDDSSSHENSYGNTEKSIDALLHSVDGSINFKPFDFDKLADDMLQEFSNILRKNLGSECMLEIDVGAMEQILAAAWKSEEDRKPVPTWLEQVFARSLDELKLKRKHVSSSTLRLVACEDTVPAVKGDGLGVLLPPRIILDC
Assay: pull-down; GST pull-down with HisTrx-D53 and GST-IPA1, both purified from bacteria; D53 detected by anti-D53
Conditions: both partners purified

B1: GST-IPA1 (natural protein, rice (Oryza sativa L.), UniProt Q7EXZ2 1-417, looked up)
chain: MEMASGGGAAAAAGGGVGGSGGGGGGGDEHRQLHGLKFGKKIYFEDAAAAAGGGGTGSGSGSASAAPPSSSSKAAGGGRGGGGKNKGKGVAAAAPPPPPPPPRCQVEGCGADLSGIKNYYCRHKVCFMHSKAPRVVVAGLEQRFCQQCSRFHLLPEFDQGKRSCRRRLAGHNERRRRPQTPLASRYGRLAASVGEHRRFRSFTLDFSYPRVPSSVRNAWPAIQPGDRISGGIQWHRNVAPHGHSSAVAGYGANTYSGQGSSSSGPPVFAGPNLPPGGCLAGVGAATDSSCALSLLSTQPWDTTTHSAAASHNQAAAMSTTTSFDGNPVAPSAMAGSYMAPSPWTGSRGHEGGGRSVAHQLPHEVSLDEVHPGPSHHAHFSGELELALQGNGPAPAPRIDPGSGSTFDQTSNTMDWSL
notes: Ideal Plant Architecture 1 (IPA1, SPL14), rice; full-length CDS in pGEX-6p-1; source: E. coli (pGEX-6p-1), purified
B1: binds.
